Test results taken from paper PMC1931592.

Assays:
[1] = molecular target: Recombinant human caspase-9 (active) (human) (UniProt P55211); experiment: enzyme inhibition assay (fluorogenic substrate cleavage); one unit of active recombinant human caspase incubated with various concentrations of peptide inhibitor in 100 mM NaCl, 50 mM HEPES, 10 mM DTT, 1 mM EDTA, 10% glycerol, 0.1% CHAPS, pH 7.4, 37°C, 30 min; then 200 μM substrate (Ac-DEVD-MCA for caspases-3 and -7, Ac-IETD-MCA for caspase-8, Ac-LEHD-MCA for caspase-9); apparent Ki = IC50/(1+[S]/Km)
Recombinant human caspase-9 (active) (human), sequence (P55211 whole entry): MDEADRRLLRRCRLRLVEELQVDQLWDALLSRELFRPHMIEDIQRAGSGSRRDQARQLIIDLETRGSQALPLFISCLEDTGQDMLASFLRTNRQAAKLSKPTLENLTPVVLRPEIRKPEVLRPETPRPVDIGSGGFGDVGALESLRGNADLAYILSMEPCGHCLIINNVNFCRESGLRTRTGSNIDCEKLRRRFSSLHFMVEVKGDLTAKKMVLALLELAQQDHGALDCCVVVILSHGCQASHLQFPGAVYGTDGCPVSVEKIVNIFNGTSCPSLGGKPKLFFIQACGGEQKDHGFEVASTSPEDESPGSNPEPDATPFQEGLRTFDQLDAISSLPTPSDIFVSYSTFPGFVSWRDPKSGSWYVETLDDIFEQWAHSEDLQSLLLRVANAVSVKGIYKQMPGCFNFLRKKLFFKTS

[2] = molecular target: T1, substituted (S209A) active caspase-3 generated by coexpression of HA-p17 and HA-p12 (S209A) subunits (human) (UniProt P42574)
T1 sequence 1: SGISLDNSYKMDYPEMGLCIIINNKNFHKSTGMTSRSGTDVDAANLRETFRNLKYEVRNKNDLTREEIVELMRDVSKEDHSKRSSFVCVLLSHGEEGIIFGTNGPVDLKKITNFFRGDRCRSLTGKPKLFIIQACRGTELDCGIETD
T1 sequence 2: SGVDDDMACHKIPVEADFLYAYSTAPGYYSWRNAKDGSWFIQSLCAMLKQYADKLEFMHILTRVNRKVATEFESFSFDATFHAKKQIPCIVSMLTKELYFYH

Ki [1] [nM] | cleavage of Ac-DNLD-MCA by in vitro translated S209A active caspase-3, against the wild type (% loss of cleavage activity) [2] | Substance
1.35 | – | Ac-DEVD-CHO (peptide)
> 200 | – | Ac-DNLD-CHO (peptide)
– | > 60 | Ac-DNLD-MCA (peptide)
